Target: mono-ubiquitin (UniProt P0CG48 1-76)
Assay: MST

Kd: 57.7 µM
B1: human α5 subunit, wild type, recombinant (natural protein)
chain: MFLTRSEYDRGVNTFSPEGRLFQVEYAIEAIKLGSTAIGIQTSEGVCLAVEKRITSPLMEPSSIEKIVEIDAHIGCAMSGLIADAKTLIDKARVETQNHWFTYNETMTVESVTQAVSNLALQFGEEDADPGAMSRPFGVALLFGGVDEKGPQLFHMDPSGTFVQCDARAIGSASEGAQSSLQEVYHKSMTLKEAIKSSLIILKQVMEEKLNATNIELATVQPGQNFHMFTKEELEEVIKDI
modifications: labelled with RED-NHS 2nd Generation dye
